Measured values published in a protein production outcome set (Wang et al. 2014).

Assay: label from the status in PepcDB records
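Note: failed if final PepcDB status was selected cloned or expressed and not failed if soluble or beyond.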

With “MMPPQRSAGTDPEAEHPQYAGQYLLEAALGSGGMGVVHLARSASGLRLAVKVVHAQYAQDPEFRGRFRQEVAAARRVSGAFTAPVVDADPGAGRPWMATLFIPGPTLAEHVKRNGALPPARLRHLMAGLAEALRDIHRAGVVHRDLKPSNVLLAEDGPKVIDFGISRPSDSELRTETGKLIGTPPFMAPEQFRRPREVGPAADVFALGSVIVHAATGSGPFDSDSPYLVAYQVVHDEPDLTGVPEELAELVAGCLAKEPDDRPTPDELMTALRSVSASYDTQAFIPVQRDGSSGSAWRPGPGPGTGPGTGPGPGPGHGGERVVTHQVRQPEPVAAPAARKRLGRRLWIPAVAVAVLACVAGALVLLGPGTGAPREQDAAPSKAAFQPWDIGLSAGGSKATGMAQCAYAPHRLYCTRPGVLAAAVDPADGKVLWSRGDAKRHSDGTVRPPVLSGGLLHVVSEGGKRLAALDPATGKTRWSHDLAAYGGRFAQVGGVVLLTGADARVTALDAATGEEKWRRRIPGQPQPAFVSYGDGLAYAVAAAGSGTKVAAVDPESGATRWQRRFDGVLSLVGAHDGAVWFASTTADSDTDAVVRYDVTRRTVRRVGLRFPLQGAQAVVRKDTVYVLANGGALVAVDTRTSKELWRLETSVSFASAPVAAGDRVYFAGADGRLLAVDASKGVLLGQTKARLGGAHGSLVSGLPSPVAADGKVYSAAPDGSLFAVDARRPGGW” the protein production was “failed”.

For “MKTFTLQDAGDIRRLLTERLMQSVNAGTVPWRQNIIRHGVPIHALSGQLFTGINVLLLWQSALQNGLTSNRWLTGDDLRSLGGSIIPGQRPTTIVRYTPSLSLFRVINIEQCDGLPTELRAGWPWPPAPVPGMERIEKWQRASQVPVLYRGQRPAVYLSESDRIELPGSDQGNLDSLTALLVSATGHPTRLGRSCFTGSDVPERDEYLQESLVADVGRAFLAALAGIPLAGTPMWNGELGSDPWILFKSASEAGKAVDWLEKQRLTTLPFDDVQHWQRLAAHLLTTHYGQQLDDTTLVCDSVVHQHLRYNISPGNAVNALARIYDWPRSDVAPALFILELNSVADAFASFSLNPGSLVVHRVASDIDDNKVVLEAPELETLFLPPPFAKSVDEVAANDEEEGGDPDDPGNLAALPWVRNQGRSNPHRATFIRQFQEIAPYENRWTVFSDFIHMSAAALHNRCHFVQEIEDDYLRRIKRYKKADQNRFPLLFNTLVEGMEFSASDFLGSVFMELELGDQRRGQYFTPYSVGYMMAKLQLADGLPALTSGERDFITVSDPACGAGGLIVAMAQAMLEAGFNPQKQMMAVCVDIDPVAAMMAYVQLALCGIPAMVIVGNSLSMEFRQTWRTPFWMMFGWERKWAREQERKAQQKVA”, the protein production was “failed”.

In the case of “MLTGLKIAVIGGDARQLEIIRKLTEQQADIYLVGFDQLDHGFTGAVKCNIDEIPFQQIDSIILPVSATTGEGVVSTVFSNEEVVLKQDHLDRTPAHCVIFSGISNAYLENIAAQAKRKLVKLFERDDIAIYNSIPTVEGTIMLAIQHTDYTIHGSQVAVLGLGRTGMTIARTFAALGANVKVGARSSAHLARITEMGLVPFHTDELKEHVKDIDICINTIPSMILNQTVLSSMTPKTLILDLASRPGGTDFKYAEKQGIKALLAPGLPGIVAPKTAGQILANVLSKLLAEIQAEEGK”, the protein production is reported as “failed”.

For “MALKELTAKEFESYSGNYDLQSFMQTPEMAKLLKKRGYDITYMGYQIDGKMEIISIVYTIPMTGGLHMEVNSGPAHSNSKYLKHFYKELQNYAKSQGALELLIKPYDTYQEFTGEGKPKGAPNTYLIDDLTSIGYHHDGLHIGYPGGEPDWHYVKNLEGITPQNLLKSFSKKGRPLVKKAMSFGIKIRVLKREELHIFKDITSSTSDRRDYMDKSLDYYQDFYDSFGDKAEFVIATLNFREYDHNLQLNAKKLEEQITVLDNRHQNNTDSAKYHRQRTELVNQLASLDKRRKEVEPFIQKFGNQDVVLAGSLFIYSPKETVYLFSGSYTEFNKFYAPAVLQEYVMQEALKRQSTFYNFLGIQGNFDGSDGVLRFKQNFNGYIVRKMGTFRYYPNPLKYKSIQLLKKILRRT”, the protein production was “failed”.

In the case of “MRDLITNRFTSQRTLREGSVGLLFLLGLGAFGVILLWLNRYTAAGSSYKAVVEFANAGGMQRGATVRYRGVKVGRISQIQPGPNAVEVEIEFAQSNLIIPRDVVIEANQTGLISESIIDITPKSSLPTGQTLPKPLDKNCDNSLIICNNSRLKGQIGISVDALIRSSTDFANTYTNPEFYQRVNRLLETSAQAATSVAALTQDFRGLTKSFQGQLGTFASTANTVQRATNELTVSTTKTVNQFGITADKFGTTATQASRLLSDLNSLLNTNRSSLVSALNNITETSNQLRLTVTNLSPSLNRLTQGELIKNLEALSANAAQASANLRNATESLNDPKNAVLLQQTLDSARLTFENTQKITSDLDELTGDPNFRQNLRQLVNGLSGLVSSTDQIEQQAKLATTLESMKAAADKPNITIPSLATHPSSNAVTIANNQPQVSSQEKLLQQLRDYAEQGSGEDKKQGSREQREELMKTDY”, the protein production is reported as “failed”.

In the case of “MSLKGKRIGFGFTGSHCTYEEVMPHLEKLIAEGAEVRPVVSYTVQSTNTRFGEGAEWIKKIEEITGFKAINSIVGAEPLGPKIPLDCMVIAPLTGNSMSKFANAMTDSPVLMAAKATLRNGKPVVLAVSTNDALGLNGVNLMRLMATKNIYFVPFGQDAPEKKPNSMVARMELLEDTVLEALQGKQLQPVVVEKFRYMNLEHHHHHH”, the protein production is reported as “not failed”.

With “PSGFPQNLHVTGLTTSTTELAWDPPVLAERNGRIISYTVVFRDINSQQELQNITTDTRFTLTGLKPDTTYDIKVRAWTSKGSGPLSPSIQSRTMPV” the protein production was “not failed”.

With “MRETIREIQKVAYWLAIKGLSEANAGNISVRLDERPEGYEVKSVNEYGFDYDGPEMYLLITATGSRMREVYEDDSKICLLHVLPGKHYEILHGNGKPTSEFPTHLMIHAKFKEMNPEKKAIVHTHPLNLLTLMNLEEFQELLPKMMKIHPEVLIFFPQGISVVEFEKPGSVELGLKTVEKSEGKDAVLWDKHGVVAFGKDVAEAYDRVEILEKAAEILLRVLSLGRNPTGVPEGWL” the protein production was “not failed”.

In the case of “MKSLSEHVDFSESKTGNSSSESETGQTLIFLLADLAQRQQIDNTLQSFLNESNAEEILLVANIRCADDEVWLRKYCARFPSVNAILNRRAKSATVLEAQGRWLARYRSQVVLSVDCDESGVKILRKVLPFFTPPVAMEMQKSTLSCQPGEQGLTLIIPAHDCDLYLTDCLASALVIESDKTLVVVDDGSLDDTHGVIAGFASQYPEIIDHISICKASGLPAVPRNIGLASVQTDTFGFIDADDWISPGEYTSALYEMQQMSADIATAAGFTRHYPDRTESLLQKCFTIPENEPANVLEGSFFSNIWNRIYARSILLRSGAYFPRTHFSEDFCFSVWSHFYAEKTIQVSVSFYHHRYGRQGSTTDNRAGSGAFSHITEFHRELEMYLADPFMRKALATILRKRMGSFQYTLKLLPPELIQPFKTALQEMLKPLNRYFISDKEPNKRDIATFAALGISDLLYQRPRSKFLGMRNWGRKWLGMYQQLTKRESHENS”, the protein production is reported as “failed”.

For “MAAMPKPAAFWNDRFANEEYVYGEAPNRFVASAARTWLPEAGEVLLLGAGEGRNAVHLAREGHTVTAVDYAVEGLRKTERLATEAGVEVEAIQADVREWKPARAWDAVVVTFLHLPADERPGLYRLVQRCLRPGGRLVAEWFRPEQRTDGYTSGGPPDPAMMVTADELRGHFAEAGIDHLEAAEPTLDEGMHRGPAATVRLVWCRPSTSLEHHHHHH”, the protein production was “not failed”.

With “MTAHPPRPELQIDIVSDVVCPWCIVGFRQLDQALAATGVLARLRWHPFELNPQMGPEGQNLREHIMEKYGSTPEQSAEARARLTAIGAELGFTFNFTDDSRIVNTFAAHQLLDWAEGQGRQHPLKQALFAAYFTDGRDVSDLSVLLDAVEAAGLDREAAQTALTSGAHQAPVREKQKFWAQHGISGVPSMVFGGKYLLTGAQGADTYAQVIQRCLAEA” the protein production was “not failed”.

For “SARFALTVVRHGETRFNKEKIIQGQGVDEPLSETGFKQAAAAGIFLNNVKFTHAFSSDLMRTKQTMHGILERSKFCKDMTVKYDSRLRERKYGVVEGKALSELRAMAKAAREECPVFTPPGGETLDQVKMRGIDFFEFLCQLILKEADQKEQFSQGSPSNCLETSLAEIFPLGKNHSSKVNSDSGIPGLAASVLVVSHGAYMRSLFDYFLTDLKCSLPATLSRSELMSVTPNTGMSLFIINFEEGREVKPTVQCICMNLQDHLNGLTETR”, the protein production was “not failed”.

For “MDPFASLAEAYEAWYGTPLGAYVIAEEERALKGLLPPGESLLEVGAGTGYWLRRLPYPQKVGVEPSEAMLAVGRRRAPEATWVRAWGEALPFPGESFDVVLLFTTLEFVEDVERVLLEARRVLRPGGALVVGVLEALSPWAALYRRLGEKGVLPWAQARFLAREDLKALLGPPEAEGEAVFLAPEAHPPYEEADLAGRRAGNRPALYLGRWR”, the protein production was “not failed”.

In the case of “DDGVVAAAAFDADRTDPDTLCVRYITVRQDRQGDRLGARLLRFVRERATERGFEHVSIGVNNPFSYQAAYRAGFCFSG”, the protein production is reported as “failed”.

In the case of “MATKAIVVEGGAMRGVFASGVLDAFLERDYKPFDFAIGVSAGASNLIGYLTDYPHRSINVITKLATSKRFFDPTRFLKGGDLIDVKWLFEESNRLYPVDEKKLFEGIPFFAATTNVDTGKADYYRVTRENFHHAIEATTALPIAYKHTPCFSGGCYTDGGVADSIPVREAYRRGARDITVVLSHPLNYSKKPVKNTWLMNKLFAEHPKMAEAMLHRSENYNESLEFIRNPPQGTRVRVIAPPDEFHVQRLSMRQSVLLEGYEMGLQEGRTHITNLSGGYGLSRENCHFCL”, the protein production is reported as “failed”.

With “MKIKVALLDKDKEYLDRLTGVFNTKYADKLEVYSFTDEKNAIESVKEYRIDVLIAEEDFNIDKSEFKRNCGLAYFTGTPGIELIKDEIAICKYQRVDVIFKQILGVYSDMAANVATISGENDKSSVVIFTSPCGGVGTSTVAAACAIAHANMGKKVFYLNIEQCGTTDVFFQAEGNATMSDVIYSLKSRKANLLLKLESCIKQSQEGVSYFSSTKVALDILEISYADIDTLIGNIQGMDNYDEIIVDLPFSLEIEKLKLLSKAWRIIVVNDGSQLSNYKFMRAYESVVLLEQNDDINIIRNMNMIYNKFSNKNSEMLSNISIKTIGGAPRYEHATVRQIIEALTKMEFFEEILQ” the protein production was “not failed”.

In the case of “MCLPIHVKYDWFCRLCKTGRTLRPTSLQRGRAMASLTLRHLAGNTWLIPAPAAIGVYVRNGRAVLIDSGNDEEAGRQILKLLNGQGWTLDLIVNTHSNADHIGGNAFLQKKTGCRVAATVPEAAFIANPILEPSFLYGGYPVKALRNKFLMAKPSTVTDIIEAIGPILDTGLEAVPLAGHFFGMIGIRTPDGVLFAADSLFPETILAKYPIFYLYDIREHLASLQRLRELEAAIYVPSHGAPSPEILPLIEANEQRVRQTVSFVESCCTDAPASFETVLERVCGEYGIVLDPNQYVLVGNTIRSILAFLSEEGRLAMIFDGGRLLWGTAADQREA”, the protein production is reported as “failed”.
